Test results taken from publication PMC4148199, “Multiple Regulation of Rad51-Mediated Homologous Recombination by Fission Yeast Fbh1” (PLoS Genetics, 2014).
One block for each binder: values may come before it.

Tests used:
Fbh1;Skp1 = biological target: T1, Fbh1;Skp1 (Schizosaccharomyces …, UniProt Q9USU3;Q9Y709 1-878;1-161, |); assay: EMSA; 3 mM Mg-acetate; preferred substrate; EMSA: 25 mM Tris-acetate pH 8.0, 1 mM DTT, 3 mM Mg-acetate, 5% glycerol, 100 mM KCl, 10 nM DNA, 30 C 10 min; ssDNA beads: 30 mM Tris-HCl pH 7.5, 1 mM DTT, 100 mM NaCl, 3.5 mM MgCl2, 5% glycerol, 0.25% Tween 20, ATP regeneration system, 37 C; conditions: protein: recombinant;recombinant; tags: 6His;6His; copies: 1;1; label: 32P
T1 sequence 1: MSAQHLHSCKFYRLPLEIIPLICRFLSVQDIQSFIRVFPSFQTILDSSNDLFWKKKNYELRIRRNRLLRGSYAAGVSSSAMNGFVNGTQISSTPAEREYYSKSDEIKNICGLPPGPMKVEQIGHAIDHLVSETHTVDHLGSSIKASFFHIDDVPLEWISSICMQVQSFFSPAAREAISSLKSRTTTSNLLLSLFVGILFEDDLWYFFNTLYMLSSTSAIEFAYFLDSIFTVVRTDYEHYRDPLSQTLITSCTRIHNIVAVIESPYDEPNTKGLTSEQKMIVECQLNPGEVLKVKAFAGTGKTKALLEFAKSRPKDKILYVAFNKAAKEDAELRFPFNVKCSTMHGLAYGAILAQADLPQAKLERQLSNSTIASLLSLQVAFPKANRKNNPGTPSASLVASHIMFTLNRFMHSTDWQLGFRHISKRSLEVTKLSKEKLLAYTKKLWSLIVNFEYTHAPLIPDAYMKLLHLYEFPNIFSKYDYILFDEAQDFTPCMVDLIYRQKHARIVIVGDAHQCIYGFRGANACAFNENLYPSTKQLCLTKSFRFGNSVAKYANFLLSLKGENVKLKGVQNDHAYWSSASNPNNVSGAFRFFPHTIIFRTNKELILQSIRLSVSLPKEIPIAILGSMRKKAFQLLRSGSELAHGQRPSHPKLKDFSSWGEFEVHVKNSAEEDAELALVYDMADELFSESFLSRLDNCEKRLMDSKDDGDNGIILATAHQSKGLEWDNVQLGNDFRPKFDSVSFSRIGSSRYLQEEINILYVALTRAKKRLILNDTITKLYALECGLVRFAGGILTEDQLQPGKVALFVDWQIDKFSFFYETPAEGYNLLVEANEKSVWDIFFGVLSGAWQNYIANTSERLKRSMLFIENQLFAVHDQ
T1 sequence 2: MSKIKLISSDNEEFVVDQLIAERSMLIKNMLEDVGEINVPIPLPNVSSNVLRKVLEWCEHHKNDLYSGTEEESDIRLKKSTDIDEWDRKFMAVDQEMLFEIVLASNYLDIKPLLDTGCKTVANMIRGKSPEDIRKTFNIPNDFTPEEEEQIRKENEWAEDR

[1] = biological target: T2, complex of 3FLAG6His-Fbh1 and 6His-Skp1 (S. pombe, UniProt Q9USU3 1-878; Q9Y709 1-161); assay: co-IP; in vitro; 0.5 µg of each purified protein mixed in 10 µl 25 mM Tris-OAc pH 7.5, 100 mM KCl, 0.5% NP40, 3 mM Mg-acetate, 10 min room temperature then 20 min 4°C; M2 anti-FLAG antibody and Dynabeads Protein G; western blot with anti-Rad51, anti-Sfr1 or anti-M2; conditions: both partners purified
T2 construct: Fbh1 (F-box DNA helicase-1), Schizosaccharomyces pombe; Skp1, Schizosaccharomyces pombe; also called FLAG-His-tagged Fbh1-Skp1; Fbh1-Skp1 complex; source: insect cells, baculovirus co-infection, purified as a complex
T2 sequence (looked up) 1: T1 sequence 1
T2 sequence (looked up) 2: T1 sequence 2

Binder: AGCTATGACCATGATTACGAATTGCTTGGAATCCTGACGAACTGTAG (ssDNA) [F3-d47 (47-mer ssDNA)]
- binding result (Fbh1;Skp1): binds

- binding result [1]: binds
B1: Rad51 (natural protein, S. pombe, UniProt P36601 1-365, looked up)
chain: MADTEVEMQVSAADTNNNENGQAQSNYEYDVNVQDEEDEAAAGPMPLQMLEGNGITASDIKKIHEAGYYTVESIAYTPKRQLLLIKGISEAKADKLLGEASKLVPMGFTTATEYHIRRSELITITTGSKQLDTLLQGGVETGSITELFGEFRTGKSQICHTLAVTCQLPIDMGGGEGKCLYIDTEGTFRPVRLLAVADRYGLNGEEVLDNVAYARAYNADHQLELLQQAANMMSESRFSLLVVDSCTALYRTDFSGRGELSARQMHLARFMRTLQRLADEFGIAVVITNQVVAQVDGISFNPDPKKPIGGNILAHSSTTRLSLRKGRGEQRICKIYDSPCLPESEAIFAINSDGVGDPKEIIAPV
notes: Rad51 recombinase, Schizosaccharomyces pombe; also called SpRad51
